Measured values: the supplement of paper PMC12042874
± gives the uncertainty stated by the source.

Assay: amyloid nucleation score (Sup35N fusion, yeast selection) (log enrichment); library NNK1; higher = more nucleation; inactive = no reads after selection
Method in brief: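 Peptides of 20 random codons, each fused to Sup35N, were expressed in psi-negative yeast. Cells were induced with 100 μM copper sulfate for 24 hours and grown 7 days at 30°C on medium lacking adenine and uracil, and plasmid inserts before and after selection were Illumina-sequenced. Nucleation scores are DiMSum log enrichments of output over input reads, centred on the mode score of non-aggregating sequences, and sequences under 100 input reads were excluded.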

Substance	amyloid nucleation score
VLLADVCLSVERGKVTDPGS	1.25 ± 0.58
VLNLIRRGIWGYHHEMGTG	-0.947 ± 0.81
VLNYHLH	-0.569 ± 0.79
VLRNDTMGAGANF	-1.3 ± 0.39
VLRRLRSWRKVELENNRGKM	inactive
VLSWWTTNPSVMENTCCPWS	2.09 ± 0.32
VLTWMDVTDLLGCVLKLSPV	1.36 ± 0.45
VLVKQGVMA	0.868 ± 0.78
VLVSSCSTGDLVSSDPHSSV	inactive
VLYMVEACLVWGIRQSESAV	0.393 ± 0.73
VLYSELLGFRKSIIIMVWTR	-0.015 ± 0.28
VMDYYTMFFEMPRGRALIAN	inactive
VMKLAVRR	-0.114 ± 0.91
VMLAGSDWLNGFRAESFCGI	-1.35 ± 2.1
VMLPHHWSLNKNY	0.264 ± 0.29
VMSATVSSFWTEVCRMRTVT	1.14 ± 0.66
VMSGRCFTRCAFGLQRVPSV	0.033 ± 0.63
VMSVSWVCIGCLSEDISWVF	5.884 ± 0.044
VMYLSGCHLRLKCYLGSFNR	5.51 ± 0.076
VMYVPPMACSLS	-0.315 ± 0.77
VNAMSLLILDAVLDKEQW	0.921 ± 1
VNDQAGRLGD	0.904 ± 0.61

Substance	amyloid nucleation score
VNEFLRFFLWSHLQWMI	-0.045 ± 0.28
VNGQYMRSHWFGDTTLLPIC	-0.316 ± 0.24
VNIRVRD	0.023 ± 0.33
VNKHL	-0.329 ± 0.36
VNKRISGTLHDTYEGDLCL	-0.418 ± 0.75
VNNYTF	0.234 ± 0.28
VNRFANVLRR	0.234 ± 0.29
VNRGVVVRITWIAKHYCMSE	0.26 ± 0.38
VNRYEVPLLGRRHDCEFSRT	-0.806 ± 1.1
VNSSPFFMYKGVHFTWTYYS	4.51 ± 0.1
VNVFYLMFQNIIIQVFLCVF	inactive
VNVKSVRYRKMSLGVYLVDW	0.261 ± 0.68
VNWFTR	0.582 ± 0.56
VPALQQIPYCMI	0.524 ± 0.57
VPENLKRMRVRAVSLGMSGE	1.44 ± 0.5
VPHLNGCISFWNVSVGYKVP	5.44 ± 0.077
VPPASQISGPWARLSEMVSH	-1.12 ± 0.7
VPRVYMFKFGIILFFYMHKA	-0.273 ± 0.3
VPSSTVVDHSIYRGDMPSFA	0.163 ± 0.41
VPYRFPRMVKYGSMDFTSLE	4.03 ± 0.094
VQADFFCSAPGHCIWVNGMR	1.73 ± 0.31
VQFLIKPDLMTG	inactive

Substance	amyloid nucleation score
VQIDK	0.514 ± 0.33
VRCCGPFRACIVLLAITKDG	-0.393 ± 1.4
VRCIVTERLTLAMDW	0.199 ± 0.47
VREGPRSRSGG	0.149 ± 0.41
VRFTTIVYPSWFFSAW	0.565 ± 0.45
VRGHKWVAWNWMRVARAEQE	-0.257 ± 0.99
VRHDITARERLSGLWQ	-0.047 ± 1.1
VRHLRR	-0.496 ± 0.55
VRKNSERGVK	-0.591 ± 0.4
VRNETSCTAIVFRSE	0.14 ± 0.22
VRRVPKLVHAADLELWAGSE	-0.754 ± 1.1
VRSCTWCGSEGPGTIPWLGD	0.443 ± 0.39
VRSFVHTWLDTTWA	-0.025 ± 0.36
VRSNGYHVMFNTINRVWDTV	0.672 ± 0.44
VRSPDSLVVWDLVRH	-0.367 ± 0.49
VRTYWTYANWIFMYKKRAQA	-1.85 ± 2.4
VRVISLEVLGYFCPRRLAGA	inactive
VRVLGVIMYARLLPVGLWGY	inactive
VRVSVLLVYSGGRFSFPWVL	-0.063 ± 1.4
VSCGDELVGDRI	0.171 ± 0.36
VSCLNLIVSWYYANFGN	-0.17 ± 0.32
VSCWRTVRTAF	0.893 ± 0.59

Substance	amyloid nucleation score
VSEIFFWFKSWRRRLRLRMG	inactive
VSFTSIHMVIEDLRIKLNPA	-0.426 ± 0.71
VSGAIRRDYIFDVIGRPTV	inactive
VSGDPNMRLCAISIATGFVF	-0.468 ± 0.63
VSGLRRSRSWWAFDVQSLLR	0.544 ± 0.55
VSGVYLRFRASCRSY	-0.105 ± 0.58
VSHDGGLLRVWFMLALREGN	0.003 ± 0.49
VSIRTGGTCHYT	0.123 ± 0.28
VSKLLCLRMHMLKLW	-0.48 ± 0.48
VSKSYPIPCISKVS	0.336 ± 0.52
VSLHSRINTVSPRKGLGSYS	0.275 ± 0.71
VSLINRRYCPATVFGF	0.117 ± 0.4
VSNFLSYNRWAHHGLFNSSF	0.553 ± 0.53
VSPGVFMGVLLMALKFFQAK	-0.303 ± 0.71
VSRPQMSSTTEHSTTDYFGC	inactive
VSRWSGEEPISCSYGTLR	-0.164 ± 0.6
VSSHSMGFIVSVVMTCEYRS	1.23 ± 0.7
VSSNYMRNML	0.169 ± 0.34
VSTNKRVVGMRRFGTYTRYV	-0.309 ± 0.6
VSTQIRRDGYDYAAVGHC	0.009 ± 0.8
VSVFDVWRMQCGNSLVKEGG	-0.088 ± 0.42
